Biological target: leukocyte function antigen-1 (LFA-1), composed of CD11a and CD18, on human white blood cells (human) (UniProt P20701)
Assay: cell-based or functional assay

Chain of leukocyte function antigen-1 (LFA-1), composed of CD11a and CD18, on human white blood cells (human) (P20701 26-1170, chain 1 of 2): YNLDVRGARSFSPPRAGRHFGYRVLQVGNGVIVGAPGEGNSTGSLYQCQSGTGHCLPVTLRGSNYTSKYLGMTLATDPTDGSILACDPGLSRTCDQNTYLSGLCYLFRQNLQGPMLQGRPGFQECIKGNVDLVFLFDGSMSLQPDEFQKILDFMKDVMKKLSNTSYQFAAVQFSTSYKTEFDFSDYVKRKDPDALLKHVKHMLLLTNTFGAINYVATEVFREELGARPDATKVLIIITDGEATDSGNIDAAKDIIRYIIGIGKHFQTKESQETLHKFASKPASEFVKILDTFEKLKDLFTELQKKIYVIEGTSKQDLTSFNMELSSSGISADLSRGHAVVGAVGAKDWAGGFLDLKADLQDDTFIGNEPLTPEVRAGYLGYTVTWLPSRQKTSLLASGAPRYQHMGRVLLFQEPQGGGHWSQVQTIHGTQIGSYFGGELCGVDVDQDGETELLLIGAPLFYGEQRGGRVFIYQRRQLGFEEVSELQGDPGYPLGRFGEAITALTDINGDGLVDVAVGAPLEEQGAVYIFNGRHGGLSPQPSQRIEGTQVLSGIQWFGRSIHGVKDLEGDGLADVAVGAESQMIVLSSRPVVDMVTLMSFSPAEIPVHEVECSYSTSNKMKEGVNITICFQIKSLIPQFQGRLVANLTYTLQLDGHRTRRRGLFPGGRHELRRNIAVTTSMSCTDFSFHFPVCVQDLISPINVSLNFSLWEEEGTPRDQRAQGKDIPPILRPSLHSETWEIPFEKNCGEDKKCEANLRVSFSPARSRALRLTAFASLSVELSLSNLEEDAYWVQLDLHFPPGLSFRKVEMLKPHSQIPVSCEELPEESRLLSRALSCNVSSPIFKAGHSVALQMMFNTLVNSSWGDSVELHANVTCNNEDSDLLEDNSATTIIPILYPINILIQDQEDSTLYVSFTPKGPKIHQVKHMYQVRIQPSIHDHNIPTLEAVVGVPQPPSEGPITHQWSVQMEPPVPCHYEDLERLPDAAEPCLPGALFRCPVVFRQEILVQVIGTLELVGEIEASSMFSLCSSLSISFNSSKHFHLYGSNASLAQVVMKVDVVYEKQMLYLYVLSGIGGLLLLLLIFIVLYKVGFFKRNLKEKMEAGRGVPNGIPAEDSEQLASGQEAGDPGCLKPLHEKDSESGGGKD
Chain of leukocyte function antigen-1 (LFA-1), composed of CD11a and CD18, on human white blood cells (human) (P05107 23-769, chain 2 of 2, further chain): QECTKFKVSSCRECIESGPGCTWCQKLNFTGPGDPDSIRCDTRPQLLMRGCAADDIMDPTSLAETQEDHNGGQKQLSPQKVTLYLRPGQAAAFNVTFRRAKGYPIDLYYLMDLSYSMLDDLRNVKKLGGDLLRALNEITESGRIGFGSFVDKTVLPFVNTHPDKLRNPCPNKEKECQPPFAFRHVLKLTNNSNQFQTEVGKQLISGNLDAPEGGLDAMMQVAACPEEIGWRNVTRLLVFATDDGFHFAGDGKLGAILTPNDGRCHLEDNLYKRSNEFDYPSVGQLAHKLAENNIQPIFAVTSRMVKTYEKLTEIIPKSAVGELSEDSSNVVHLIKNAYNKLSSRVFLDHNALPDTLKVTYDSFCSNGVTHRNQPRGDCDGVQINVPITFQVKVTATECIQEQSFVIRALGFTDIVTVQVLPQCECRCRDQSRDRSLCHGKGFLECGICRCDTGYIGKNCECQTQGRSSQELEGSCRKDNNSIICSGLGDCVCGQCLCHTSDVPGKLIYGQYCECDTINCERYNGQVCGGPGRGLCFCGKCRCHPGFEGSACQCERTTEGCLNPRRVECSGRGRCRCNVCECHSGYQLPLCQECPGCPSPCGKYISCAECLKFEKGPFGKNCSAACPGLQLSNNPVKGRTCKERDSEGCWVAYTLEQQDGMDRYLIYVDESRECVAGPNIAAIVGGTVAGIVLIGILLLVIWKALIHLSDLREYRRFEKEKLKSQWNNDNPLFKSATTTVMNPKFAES

IC50 of inhibition of proliferation of Jurkat cells (CellTiter Glo): 5000 µg/mL
Substance: Efalizumab (RAPTIVA), anti-LFA-1 mAb (antibody)
